These results are taken from the supplement of paper PMC6379048.

What all share (assay): EC50 of free RNA motif oligo competing protein binding to immobilised probe
One data set deals with CXorf57 (UniProt Q6NSI4). In a few lines:
(§1)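 HEK293-FT lysate (2.5 mg protein/well) was treated with free RNA oligos (0 nM to 30 μM) for 1 h at 4°C, then with the same oligos on NHS-Sepharose beads for 30 min at 4°C. Bound proteins were quantified by label-free LC-MS/MS relative to the control. EC50 came from a four-parameter log-logistic fit, and Kd is EC50 times a protein-dependent depletion factor.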

The next data set has as its target GPATCH11 (UniProt Q8N954). In a few lines:
as §1

Another data set addresses T1, TIA1 (UniProt P31483).
T1 sequence: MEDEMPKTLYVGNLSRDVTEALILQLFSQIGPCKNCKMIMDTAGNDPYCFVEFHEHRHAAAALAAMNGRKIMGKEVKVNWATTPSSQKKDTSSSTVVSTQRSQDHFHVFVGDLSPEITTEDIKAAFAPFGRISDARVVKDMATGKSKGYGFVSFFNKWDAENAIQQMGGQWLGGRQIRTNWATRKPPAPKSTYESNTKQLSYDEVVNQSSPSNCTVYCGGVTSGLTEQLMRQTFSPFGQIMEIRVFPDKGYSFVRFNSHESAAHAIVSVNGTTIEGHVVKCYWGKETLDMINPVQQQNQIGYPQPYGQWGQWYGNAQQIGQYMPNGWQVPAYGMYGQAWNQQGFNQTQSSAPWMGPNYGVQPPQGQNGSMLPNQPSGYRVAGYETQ
In a few lines:
as §1

Another data set addresses T2, TIAL1 (UniProt Q01085).
T2 sequence: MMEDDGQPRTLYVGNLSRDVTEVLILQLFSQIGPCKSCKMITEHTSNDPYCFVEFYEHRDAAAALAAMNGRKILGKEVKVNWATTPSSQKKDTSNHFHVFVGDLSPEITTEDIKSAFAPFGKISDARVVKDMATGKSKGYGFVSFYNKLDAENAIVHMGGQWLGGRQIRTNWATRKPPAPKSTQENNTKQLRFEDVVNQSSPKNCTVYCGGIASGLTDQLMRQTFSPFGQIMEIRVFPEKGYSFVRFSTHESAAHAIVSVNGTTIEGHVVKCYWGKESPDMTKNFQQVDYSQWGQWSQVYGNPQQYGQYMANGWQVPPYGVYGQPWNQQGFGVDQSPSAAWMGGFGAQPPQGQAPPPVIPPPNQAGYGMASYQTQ
In a few lines: as §1

The next data set addresses MRPL37 (UniProt Q9BZE1). Summed up: as §1
Another data set addresses MRPL39 (UniProt Q9NYK5). In a few lines: as §1
For a further data set, the target named is MRPL48 (UniProt Q96GC5). Summed up:
as §1

The next data set deals with T3, DHX37 (UniProt Q8IY37).
T3 sequence: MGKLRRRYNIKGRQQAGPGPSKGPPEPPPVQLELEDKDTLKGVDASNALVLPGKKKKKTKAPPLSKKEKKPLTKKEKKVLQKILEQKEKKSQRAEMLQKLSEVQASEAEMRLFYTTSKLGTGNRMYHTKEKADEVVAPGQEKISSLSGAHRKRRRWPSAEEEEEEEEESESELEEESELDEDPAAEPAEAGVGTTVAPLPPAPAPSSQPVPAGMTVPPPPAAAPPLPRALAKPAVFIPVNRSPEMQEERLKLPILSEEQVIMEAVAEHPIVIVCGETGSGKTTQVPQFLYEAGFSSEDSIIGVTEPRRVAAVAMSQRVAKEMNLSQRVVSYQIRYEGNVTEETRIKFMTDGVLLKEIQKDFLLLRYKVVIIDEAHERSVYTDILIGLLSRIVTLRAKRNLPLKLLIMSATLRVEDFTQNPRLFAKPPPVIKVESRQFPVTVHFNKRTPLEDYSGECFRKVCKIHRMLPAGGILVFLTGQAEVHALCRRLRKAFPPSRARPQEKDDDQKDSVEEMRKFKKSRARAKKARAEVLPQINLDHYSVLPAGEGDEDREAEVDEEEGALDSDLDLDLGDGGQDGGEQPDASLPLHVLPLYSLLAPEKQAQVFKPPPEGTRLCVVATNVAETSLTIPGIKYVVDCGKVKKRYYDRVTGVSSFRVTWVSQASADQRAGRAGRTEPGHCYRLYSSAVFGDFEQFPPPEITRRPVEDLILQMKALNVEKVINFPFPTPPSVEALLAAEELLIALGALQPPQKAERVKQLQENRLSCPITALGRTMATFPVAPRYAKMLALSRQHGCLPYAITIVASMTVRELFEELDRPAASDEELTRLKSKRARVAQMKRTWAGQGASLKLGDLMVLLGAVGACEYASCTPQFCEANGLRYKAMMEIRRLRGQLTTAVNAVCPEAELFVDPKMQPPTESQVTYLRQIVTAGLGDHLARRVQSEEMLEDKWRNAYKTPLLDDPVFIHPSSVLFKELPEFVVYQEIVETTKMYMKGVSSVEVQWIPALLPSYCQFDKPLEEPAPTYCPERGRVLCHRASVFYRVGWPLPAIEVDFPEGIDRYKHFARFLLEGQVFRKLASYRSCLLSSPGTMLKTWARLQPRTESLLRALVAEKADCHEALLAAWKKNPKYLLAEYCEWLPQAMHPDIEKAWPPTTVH
Summed up:
as §1

Another data set addresses T4, LSM8 (UniProt O95777).
T4 sequence: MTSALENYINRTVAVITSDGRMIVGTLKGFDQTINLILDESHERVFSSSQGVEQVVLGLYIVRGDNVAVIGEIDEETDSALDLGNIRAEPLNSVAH
In a few lines: as §1

The target in the next data set is MRPS9 (UniProt P82933). In a few lines:
as §1

A further data set has as its target PPIE (UniProt Q9UNP9). Summed up:
as §1

PPIE, sequence (Q9UNP9 whole entry): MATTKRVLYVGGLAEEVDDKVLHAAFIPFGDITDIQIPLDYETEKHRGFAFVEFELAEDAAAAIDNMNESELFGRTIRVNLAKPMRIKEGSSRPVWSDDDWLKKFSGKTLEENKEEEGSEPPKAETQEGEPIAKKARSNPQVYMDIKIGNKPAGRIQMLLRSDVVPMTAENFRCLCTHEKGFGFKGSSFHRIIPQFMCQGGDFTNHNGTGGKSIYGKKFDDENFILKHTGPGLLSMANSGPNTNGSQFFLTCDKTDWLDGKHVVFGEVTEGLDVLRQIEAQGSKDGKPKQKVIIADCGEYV
GPATCH11, sequence (Q8N954 whole entry): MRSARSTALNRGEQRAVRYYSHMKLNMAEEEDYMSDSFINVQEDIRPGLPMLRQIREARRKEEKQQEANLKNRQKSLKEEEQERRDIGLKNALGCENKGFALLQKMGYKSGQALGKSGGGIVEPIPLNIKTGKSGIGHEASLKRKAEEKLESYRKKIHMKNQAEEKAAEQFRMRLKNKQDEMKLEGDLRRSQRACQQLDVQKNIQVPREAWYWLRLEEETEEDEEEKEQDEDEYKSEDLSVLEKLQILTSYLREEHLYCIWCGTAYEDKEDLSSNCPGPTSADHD
CXorf57, sequence (Q6NSI4 whole entry): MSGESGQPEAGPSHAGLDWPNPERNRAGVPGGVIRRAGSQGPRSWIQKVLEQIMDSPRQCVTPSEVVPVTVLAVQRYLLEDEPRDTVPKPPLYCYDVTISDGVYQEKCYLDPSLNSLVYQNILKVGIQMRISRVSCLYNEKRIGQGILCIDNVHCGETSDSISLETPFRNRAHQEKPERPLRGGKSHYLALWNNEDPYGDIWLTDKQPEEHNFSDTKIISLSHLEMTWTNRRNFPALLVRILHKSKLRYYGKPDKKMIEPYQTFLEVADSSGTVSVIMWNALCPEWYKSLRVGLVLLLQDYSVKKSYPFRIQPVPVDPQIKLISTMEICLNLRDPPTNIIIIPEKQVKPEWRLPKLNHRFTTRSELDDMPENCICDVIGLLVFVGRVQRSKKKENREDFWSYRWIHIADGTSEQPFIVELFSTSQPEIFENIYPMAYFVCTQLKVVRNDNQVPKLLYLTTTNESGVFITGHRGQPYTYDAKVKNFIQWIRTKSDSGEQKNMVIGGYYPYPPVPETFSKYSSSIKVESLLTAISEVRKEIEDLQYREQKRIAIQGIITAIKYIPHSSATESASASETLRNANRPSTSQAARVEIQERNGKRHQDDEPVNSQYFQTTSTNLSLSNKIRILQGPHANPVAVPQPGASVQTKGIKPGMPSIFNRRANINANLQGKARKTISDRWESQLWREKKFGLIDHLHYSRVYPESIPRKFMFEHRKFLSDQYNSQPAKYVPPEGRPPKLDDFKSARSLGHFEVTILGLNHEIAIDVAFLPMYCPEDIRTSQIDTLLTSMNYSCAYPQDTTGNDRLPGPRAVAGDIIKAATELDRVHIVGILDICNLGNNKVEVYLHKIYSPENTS

The term EC50 denotes the midpoint of the concentration-response curve. Read a high EC50 as weaker potency. Take AAUAAA: the EC50 in the data set with CXorf57 was 3560 nM; with GPATCH11, 122 nM; with TIA1 it was 2110 nM; with TIAL1 it was 546 nM.

Regarding CUGUCCU, the EC50 is 245 nM with MRPL37, 248 nM with MRPL39 and 177 nM with MRPL48.

Take UAUUUAU: the EC50 is 4680 nM with DHX37, 9580 nM with LSM8, 29.4 nM with MRPS9 and 300 nM with PPIE.
